{
  "source": "paper PMC8322138",
  "about": "“BRCA2 binding through a cryptic repeated motif to HSF2BP oligomers does not impact meiotic recombination” (Nature Communications, 2021)",
  "molecules": {"B1": {"name": "L85R: GFP-HSF2BP point mutant (protein, UniProt O75031 1-334, looked up, variant L85R)", "Heat shock factor 2-binding …": "MGEAGAAEEACRHMGTKEEFVKVRKKDLERLTTEVMQIRDFLPRILNGEVLESFQKLKIVEKNLERKEQELEQLKMDCEHFKARRETVQADNIREKKEKLALRQQLNEAKQQLLQQAEYCTEMGAAACTLLWGVSSSEEVVKAILGGDKALKFFSITGQTMESFVKSLDGDVQELDSDESQFVFALAGIVTNVAAIACGREFLVNSSRVLLDTILQLLGDLKPGQCTKLKVLMLMSLYNVSINLKGLKYISESPGFIPLLWWLLSDPDAEVCLHVLRLVQSVVLEPEVFSKSASEFRSSLPLQRILAMSKSRNPRLQTAAQELLEDLRTLEHNV", "modifications": "GFP fusion", "notes": "GFP-HSF2BP point mutant"}, "B2": {"name": "R200T: HSF2BP mutant R200T (protein, UniProt O75031 1-334, looked up, variant R200T)", "Heat shock factor 2-binding …": "B1 Heat shock factor 2-binding … with R85L, R200T"}},
  "key": {"[1]": {"test": "Stability / expression of recombinant GFP-HSF2BP variants", "set-up": "species or system human", "conditions": "peer review file; immunoblot, FACS"}, "[2]": {"test_system": "mitomycin C-induced repair foci", "conditions": "cited from earlier work", "text": "Consistent with our in vitro study, we observed in mouse ES cells that deletion of exon 12, coding for motif 1, causes a severe decrease in the BRCA2-HSF2BP interaction, and deletion of exons 12 to 14, coding for motifs 1 and 2, completely abolishes this interaction (Fig. 5d, e). […] We further previously ..."}},
  "note": "Substitutions are numbered along the chain they refer to. Names may count otherwise.",
  "data": [
    {"molecule": "B1", "values": [
      {"measurement": "stability of recombinant GFP-HSF2BP variant", "setting": "[1]", "result": "unstable"}
    ]},
    {"molecule": "B2", "values": [
      {"measurement": "localization of GFP-tagged HSF2BP to mitomycin C-induced repair foci", "setting": "[2]", "result": "abolishes localization"}
    ]}
  ]
}
